Data reported in the DeepSol protein solubility set.

experiment: soluble on expression in E. coli; label from the status in PepcDB or PDB records

Sequence	soluble on expression in E. coli
MPRVWKFGDQINTDDILPGKYAPFMVGEDRFHLYAFAHLRPEFAKEVRPGDILVFGRNAGLGSSREYAPEALKRLGIRAIIAKSYARIFFRNLVNLGIVPFESEEVVDALKDGDEVELDLESGVLTRGEERFLLRPPPPFLLEALKEGSLLDYYKKHGRFPGE	soluble
MRKITSVSVGEQLDSFITRMVQSGRYGSASEVMRSALRLLEQQESRDEAVRNAVIEGLESGESSMTLRDIAAERKQKHRV	soluble
MGSDKIHHHHHHMIHFSINKNLFLQALNTTKRAISSKNAIPILSTVKIDVTNEGITLIGSNGQISIENFISQKNEDAGLLITSLGSILLEASFFINVVSSLPDVTLDFKEIEQNQIVLTSGKSEITLKGKDSEQYPRIQEISASTPLILETKLLKKIINETAFAASTQESRPILTGVHFVLSQHKELKTVATDSHRLSQKKLTLEKNSDDFDVVIPSRSLREFSAVFTDDIETVEIFFANNQILFRSENISFYTRLLEGNYPDTDRLIPTDFNTTITFNVVNLRQSMERARLLSSATQNGTVKLEIKDGVVSAHVHSPEVGKVNEEIDTDQVTGEDLTISFNPTYLIDSLKALNSEKVTISFISAVRPFTLVPADTDEDFMQLITPVRTN	soluble
MGSDKIHHHHHHMRNPKPQEWKTEDYSQKKIADYKAFNFVDGEGVRNSLYVSGCLFACEGCFNKAVQNFNYGTPFTESLMNQIIEDLSHDYVQGLTLLGGEPFLNTDVCLSVVKRVRETFGSAKDIWSWSGYTFEELLLETPDKLELLHSIDILVDGRFELAKRNLNLQFRGSSNQRIIDVPKSLAAGKAVIWEKCHDAETSYEQIKKSI	not soluble
HKDFTWNTTLSATWSKEKIDKLPDGDLISENLFTGEPIHAIYGYKYAGIWGSDTPKETLDAYGVNPGFIKIETVDKNGDGGVHKYSTDDRQILGHTNPDWIIGLNNSFTYKNFDLSVFAMARYGQTINSDLLGYYTAEQSVTKNQLAGVDYWTEDNQGAYFPRPGTGDEQKTVYPSLRVHDGSFIKIKNITLGYTLPANISRKVLMEKCRIYATAYNPFIFVKDKQLKDTDPETNGSDAFPTYRQFVFGVNLTF	not soluble
MVVPLKRIDKIRWEIPKFDKRMRVPGRVYADEVLLEKMKNDRTLEQATNVAMLPGIYKYSIVMPDGHQGYGFPIGGVAAFDVKEGVISPGGIGYDINCGVRLIRTNLTEKEVRPRIKQLVDTLFKNVPSGVGSQGRIKLHWTQIDDVLVDGAKWAVDNGYGWERDLERLEEGGRMEGADPEAVSQRAKQRGAPQLGSLGSGNHFLEVQVVDKIFDPEVAKAYGLFEGQVVVMVHTGSRGLGHQVASDYLRIMERAIRKYRIPWPDRELVSVPFQSEEGQRYFSAMKAAANFAWANRQMITHWVRESFQEVFKQDPEGDLGMDIVYDVAHNIGKVEEHEVDGKRVKVIVHRKGATRAFPPGHEAVPRLYRDVGQPVLIPGSMGTASYILAGTEGAMKETFGSTCHGAGRVLSRKAATRQYRGDRIRQELLNRGIYVRAASMRVVAEEAPGAYKNVDNVVKVVSEAGIAKLVARMRPIGVAKG	soluble
GANTTETPVKDVELDGRWDDPIRSAATNCPITVFTDGYLLTLKNASPDRDMTIRITDMAKGGVVYENDIPEVQSAYITISIANFPAEEYKLEITGTPSGHLTGYFTKE	soluble
MGGSHHHHHHGMASALDCCTENACSKPDDDILDIPLDDPGANAAAAKIQASFRGHMARKKIKSGERGRKGPGPGGPGGAGVARGGAGGGPSGD	not soluble
MNDELFNLIERLANLLRQETRLEGQSLGLQPIQQEALYYLSTCNRYSDTTLAVTEFLGLTKGTVSQSLKILESKSLIAKVKDKKDKRITHLKVTETGREFLMKTCPPQKFTDAIAGLSVDEEFETKTLLKKVLSNYQLATGRTAFGVCKHCKFNRKTSDGILCDLTKEALSSDDIMLICREYVV	not soluble
KILEREFSMNEQLFKDLFDRAVDGIVLFDKDGGFIDANLSFCKSFEINHNELSHLSLYEFIDSGSRKDFDNIWKALNRKGKAKGELPVKLRSGVQKLFEFTITSNIISGFYMSIMRDIT	not soluble
MSVYTTAQLLAVNEKKFKFDPLFLRIFFRETYPFSTEKVYLSQIPGLVNMALYVSPIVSGKVIRSRGGSTSEFTPGYVKPKHEVNPLMMTLRLPDEDPQNVADPVYRRRRIILQNMKDEELAIAQVEEKQAVSAVLSGKYTMTGEAFEPVEVDMGRSAGNNIVQAGAAAWSTRDKETYDPTDDIEAYALNARGVVNIIVFDPKGWALFRSFKAVEKKLDTRRGSNSELETAVKDLGMAVSYKGMFGDVAIVVYSGQYVENDVKKNYLPDLTMVLGNTQARGLRTYGCILDADAQREGIDAST	not soluble
PETVCWGHVEEVELINDGSGLGFGIVGGKTSGVVVRTIVPGGLADRDGRLQTGDHILKIGGTNVQGMTSEQVAQVLRNCGNSVRMLVARDPAGDISVT	soluble
MFSRVRVSAPSHVHAGNYDIEGSIGRLYGTVGLALGEPRLTLEASPSHSVEVEGGSRRREAEDLARLYLDKVGSRGCRLEGVKIRIYEEIPAHVGLGSTTALALSIGSSIYRICGLEPLDLRELAVTAGRSLVSALGLYSFEQGGLIVDGGFVRGERRPPPLVFRAHVPGSVKVVVALPERPIAKILDIKRREDELLARMPPMDPSMAGWASRVVLLGIMANAAEGRWGEAARWMGEFNRRLGEYWAGEQGGIYCCSEVEEIVRAMVDAGAWSGLQSSWGPTVYGLTPARRAASVLEAARRAVERVGGGKVWVTSVDNVGAVISSF	not soluble
MGSDKIHHHHHHMSSICQGTWDCQNCPKAVDNAIAHIIHPRGYHQPARKCEENFILFLIRGEVLVNSQEYAGTMLRAGEFILQAIGSKFEMLAMTECECIYYRFIQPELFCDFRFNHIMKEVSSPLIYSPLKIIPELKYFLDGSKSYLSESKVCRDLLSLKRKELAFVLGYYYSDYDLASLVHPLSKYTSTFQYFILQNYKKVKTVEELAQLGGYTVSTLRRIFNNVFHEPVYEWMQARRKEGILDELLNTNNSISEICYKYGFESLPHFSNFCKKFFGASPRMLRTNKKTI	not soluble
MGTRRDVRQEMLDDVQKKLMSLANSSEGKVDKVLMRNLFIGHFHTPKNQRHEVLRLMGSILGVRREEMEQLFHDDQGSVTRWMTGWLGGGSKSVPNTPLRPNQQSVVNSSFSELFVKFLETESHPSIPPPKLSVHDMKPLDSPGRRKRDTNAPESFKDTAESRSGRRTDVNPFLAPRSAAVPLINPAGLGPGGPGIFFLEHHHHHH	not soluble
MGSDKIHHHHHHMKLCSVTKIWDKSAHNAFTDLALYRGKLYCVFREASAHVSPDGALRILCTDNDGQDWHSVALIEADFADLRDGKLVIEGDSLFLFGGAAMHEGKGEGMRSYCWQSDDGIHWSAPRALVKEREWLWRITPHKGYFYGIAYYCHEHDGYAALYKSDANTDFYPLVEKLSQAGYVNESGLVFDEEDKAICLLRRDPLWLTDERALLGESAPPYTQWHWQTANCRVGGPVTFLYQGQLYGVVRLYDGRVRTALVAIDRQSAQIAELLTLPSGGDTSYAGVVLSDNILMVSYYSSHEGDCAIYFAKIAL	not soluble
FSDISSLQRFVKFSQSDWLVEMLAQERFTSHFQPIVSMKNTSEIYGYEALLRGLDEQGNLIPPQPIVELATEAGLLPQLDRIARLSTIAQFSSHQVSGQIFINFAPTAVYDPASCLKSTVEAIDQAGISHERVVFEVVESDSPQDLDHLKAVLKYYRDAGFSIALDDLGSGYSSLNLLHQLRPDFIKLDMELIRDVHQDLYKASITEKLLEIAQKLNIRTVAEGIECIEELNWVQERGATFAQGYLIAKP	not soluble
MPSTLSEELVGKYLAAQYQVWIDTSVVTLQIGCQSAPLAALLQATGNRSAVYVTACNPASEVATSQENQSAMARLYERLACYSNHIYRGTGIDPSGEWPAEESLLALGIDLSIAKKIGDEFGQNAIVWIDSAAIPHLVLLC	not soluble
MAHHHHHHMCCTFWGLRLDNTCNNMKSVDIIKCDMCFFSHDGLFLIYTIINKIFVIQVKNLEMYRIYVESYKVDDIKLSSDNIHFLTLIKNKGCVCIYSFYKNNLINKICDYFQTYDHSFFLSKHNNIGIVKYEKKCLTIYNMNNPEKCLINIENIKYQNKGYCSNYINTIFACLVENKKDVNILLLSLFNYTIIKIIKCINFFPNDILFSKSDHIIAYSNKNRSLHIYSIDGDLLHVYKYAEDLGGNTKNVKKKKKKKKKSKFCAWKILKKSSFSFWITHCK	not soluble
MNSILSLIGRDTELFHQDINANEKELQSVVSQSRFLVLGGAGSIGQAVTKEIFKRNPQKLHVVDISENNMVELVRDIRSSFGYINGDFQTFALDIGSIEYDAFIKADGQYDYVLNLSALKHVRSEKDPFTLMRMIDVNVFNTDKTIQQSIDAGAKKYFCVSTDKAANPVNMMGASKRIMEMFLMRKSEEIAISTARFANVAFSDGSLLHGFNQRIQKNQPIVAPNDIKRYFVTPQESGELCLMSCIFGENRDIFFPKLSEALHLISFADIAVKYLKQLGYEPHLCESEDEARELAKTLPAQGKWPCLFTSSDTTGEKDFEEFFTDKETLDMARFDNLGIIKNDSLYQQELLELFEQKIGQMKTDRQWTKEEIVQLFFIMIPDFGHKETGKYLDSKM	soluble
AKGDPHVLLTTSAGNIELELDKQKAPVSVQNFVDYVNSGFYNNTTFHRVIPGFMIQGGGFTEQMQQKKPNPPIKNEADNGLRNTRGTIAMARTADKDSATSQFFINVADNAFLDHGQRDFGYAVFGKVVKGMDVADKISQVPTHDVGPYQNVPSKPVVILSATVLP	soluble
MGSSHHHHHHSSGLVPRGSHMDRKTEFIECTNAFNEKPKKGIPMLIEKGFIASDSDKDIAEFLFNNNNRMNKKTIGLLLCHPDKVSLLNEYIRLFDFSGLRVDEAIRILLTKFRLPGESQQIERIIEAFSSAYCENQDYDPSKISDNAEDDISTVQPDADSVFILSYSIIMLNTDLHNPQVKEHMSFEDYSGNLKGCCNHKDFPFWYLDRVYCSIRDKEIVMPEEHHGNE	soluble
MGSDKIHHHHHHMYTQDNVISNNKRLSSFQLSKMHTFEVAARHCSFSLAAEELSMTPSAISHRINALESELGILLFKRSHRKIELTKEGERIYIAVKSSFSSLNQEILEVKSNEISGELTVYSRPSFAQCWLVPRIAGFQKQYPAISLNILTGNENINFHGHGIDVAIYFDEKQPSKLYCQDIMTETIVPVCSPEYAEEFDLIGKINNLSQCTLLHDNQAWGYDSNTDEWALWANNFNINCLASSASIRFDRSDLAVIAAMNNAGVAMGRESFISNQIKRGELIKPFIDKKILCPQRYYVATLPNNKNTKIELFIEWLKNEVQNEGGESIV	not soluble
MSLLTPEQIAAAQKANIESLFGLTTKAFEGVEKLIELNLQVVKSTLAESQENVQRALSVKDAQELLALQASLTQPIAEKVLAYGRHVYEIASATQAEFAKVAEAQYEEQNRKVQALVDNVAKNAPAGSETAVAALKSAINAANTTYETVQK	not soluble
SNAMAAKKPLFEVIASKIKDSINRDEYKTGMLMPNETALQEIYSSSRTTIRRAVDLLVEEGLVVRKNGVGLYVQPKLTAQNILEMTGVMKNDTNENLKKDIKDFYIRKAGKFYAEIFGMKENELVYSIKFVQKSEHGATLDRLILPLGLYPDLQAKDFQIINIIELVNSGKYKLFELEQELQLILAGNEQIKNMHLNENDPVFKLSSVFYAENDMPIAIQYHYEDAESTKYVVDFN	soluble
